Laboratory results taken from patent US20160272683A1 (Novo Nordisk, published 2016).
Values belong to the binder of their own block, whether it stands above or below them. Numbered stars: 1 amine (or outer) side, 2 acyl side, 3 side chain; on linkers, the order of the positions; unused ones are H or OH. * marks the point of attachment. C20 diacid = O=C(O)CCCCCCCCCCCCCCCCCCC(=O)*; C18 diacid = O=C(O)CCCCCCCCCCCCCCCCC(=O)*; γGlu = O=C(O)[C@H](CCC(=O)[*:2])N[*:1]; C14 diacid = O=C(O)CCCCCCCCCCCCC(=O)*; Palmitoyl = CCCCCCCCCCCCCCCC(=O)*; AEEA = NCCOCCOCC(=O)O

Molecular target: T1, human calcitonin receptor (human, UniProt P30988 25-474)
T1 construct: whole, on cells; also called hCT-R; hCTR
T1 sequence (looked up): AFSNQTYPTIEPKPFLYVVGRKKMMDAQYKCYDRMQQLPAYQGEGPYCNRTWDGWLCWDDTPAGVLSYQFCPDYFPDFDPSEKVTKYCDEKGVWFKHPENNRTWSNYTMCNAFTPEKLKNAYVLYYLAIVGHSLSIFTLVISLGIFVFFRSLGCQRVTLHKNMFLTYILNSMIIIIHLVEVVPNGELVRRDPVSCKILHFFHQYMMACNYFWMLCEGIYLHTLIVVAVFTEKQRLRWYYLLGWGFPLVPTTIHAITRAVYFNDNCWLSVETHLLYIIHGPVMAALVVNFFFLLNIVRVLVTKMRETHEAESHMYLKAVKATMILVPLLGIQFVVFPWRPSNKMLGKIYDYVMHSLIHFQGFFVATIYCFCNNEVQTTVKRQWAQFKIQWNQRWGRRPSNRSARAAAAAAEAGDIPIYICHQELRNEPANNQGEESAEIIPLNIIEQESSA
Assay: whole-cell competition vs 125I-human calcitonin (Assay VIIa)
Method in brief: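 BHK tk'ts 13 cells stably co-expressing human calcitonin receptor and a CRE-luciferase reporter, seeded overnight at 37 °C. Bound tracer counted by scintillation after cold HBSS washes and NaOH/SDS lysis; IC₅₀ from one-site competition fit taken as receptor affinity.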

IC50: 0.834 nM
Binder: Palmitoyl-EASELSTAALGRLSAELHELATLPRTETGPESP-NH2 (also called Ex. #7) [[N-terminal(C16)]mimylin]

IC50: 0.352 nM
Binder: {C20 diacid-γGlu-AEEA-AEEA-AEEA}-ASELSTAALGRLSAELHELATLPRTETGSGSP-NH2 (also called Ex. #43) [[N-terminal(C20 diacid-gGlu-3xOEG), des1, 30S, 31G]mimylin]

IC50: 17.3 nM
B1: [N-terminal(C18 diacid-gGlu), des1, 6T, 9V, 14T, 21E, 30T, 31G, 32T]mimylin (peptide)
peptide: {C18 diacid-γGlu}-ASELTTAVLGRLTAELHELETLPRTETGTGTP-NH2
SMILES: CC(C)C[C@H](NC(=O)[C@H](CCC(=O)O)NC(=O)[C@H](C)NC(=O)[C@@H](NC(=O)[C@H](CC(C)C)NC(=O)[C@H](CCCNC(=N)N)NC(=O)CNC(=O)[C@H](CC(C)C)NC(=O)[C@@H](NC(=O)[C@H](C)NC(=O)[C@@H](NC(=O)[C@@H](NC(=O)[C@H](CC(C)C)NC(=O)[C@H](CCC(=O)O)NC(=O)[C@H](CO)NC(=O)[C@H](C)NC(=O)CC[C@H](NC(=O)CCCCCCCCCCCCCCCCC(=O)O)C(=O)O)[C@@H](C)O)[C@@H](C)O)C(C)C)[C@@H](C)O)C(=O)N[C@@H](Cc1c[nH]cn1)C(=O)N[C@@H](CCC(=O)O)C(=O)N[C@@H](CC(C)C)C(=O)N[C@@H](CCC(=O)O)C(=O)N[C@H](C(=O)N[C@@H](CC(C)C)C(=O)N1CCC[C@H]1C(=O)N[C@@H](CCCNC(=N)N)C(=O)N[C@H](C(=O)N[C@@H](CCC(=O)O)C(=O)N[C@H](C(=O)NCC(=O)N[C@H](C(=O)NCC(=O)N[C@H](C(=O)N1CCC[C@H]1C(N)=O)[C@@H](C)O)[C@@H](C)O)[C@@H](C)O)[C@@H](C)O)[C@@H](C)O

IC50: 0.821 nM
B2: [N-terminal(C18 diacid-gGlu), des1, 6T, 9V, 30S, 31G]mimylin (peptide)
peptide: {C18 diacid-γGlu}-ASELTTAVLGRLSAELHELATLPRTETGSGSP-NH2
SMILES: CC(C)C[C@H](NC(=O)[C@H](CCC(=O)O)NC(=O)[C@H](Cc1c[nH]cn1)NC(=O)[C@H](CC(C)C)NC(=O)[C@H](CCC(=O)O)NC(=O)[C@H](C)NC(=O)[C@H](CO)NC(=O)[C@H](CC(C)C)NC(=O)[C@H](CCCNC(=N)N)NC(=O)CNC(=O)[C@H](CC(C)C)NC(=O)[C@@H](NC(=O)[C@H](C)NC(=O)[C@@H](NC(=O)[C@@H](NC(=O)[C@H](CC(C)C)NC(=O)[C@H](CCC(=O)O)NC(=O)[C@H](CO)NC(=O)[C@H](C)NC(=O)CC[C@H](NC(=O)CCCCCCCCCCCCCCCCC(=O)O)C(=O)O)[C@@H](C)O)[C@@H](C)O)C(C)C)C(=O)N[C@@H](C)C(=O)N[C@H](C(=O)N[C@@H](CC(C)C)C(=O)N1CCC[C@H]1C(=O)N[C@@H](CCCNC(=N)N)C(=O)N[C@H](C(=O)N[C@@H](CCC(=O)O)C(=O)N[C@H](C(=O)NCC(=O)N[C@@H](CO)C(=O)NCC(=O)N[C@@H](CO)C(=O)N1CCC[C@H]1C(N)=O)[C@@H](C)O)[C@@H](C)O)[C@@H](C)O
notes: also called Ex. #85

IC50: 0.605 nM
B3: [N-terminal(C18 diacid-gGlu), des1, 4Q, 30S, 31G]mimylin (peptide)
peptide: {C18 diacid-γGlu}-ASQLSTAALGRLSAELHELATLPRTETGSGSP-NH2
SMILES: CC(C)C[C@H](NC(=O)[C@H](C)NC(=O)[C@H](C)NC(=O)[C@@H](NC(=O)[C@H](CO)NC(=O)[C@H](CC(C)C)NC(=O)[C@H](CCC(N)=O)NC(=O)[C@H](CO)NC(=O)[C@H](C)NC(=O)CC[C@H](NC(=O)CCCCCCCCCCCCCCCCC(=O)O)C(=O)O)[C@@H](C)O)C(=O)NCC(=O)N[C@@H](CCCNC(=N)N)C(=O)N[C@@H](CC(C)C)C(=O)N[C@@H](CO)C(=O)N[C@@H](C)C(=O)N[C@@H](CCC(=O)O)C(=O)N[C@@H](CC(C)C)C(=O)N[C@@H](Cc1c[nH]cn1)C(=O)N[C@@H](CCC(=O)O)C(=O)N[C@@H](CC(C)C)C(=O)N[C@@H](C)C(=O)N[C@H](C(=O)N[C@@H](CC(C)C)C(=O)N1CCC[C@H]1C(=O)N[C@@H](CCCNC(=N)N)C(=O)N[C@H](C(=O)N[C@@H](CCC(=O)O)C(=O)N[C@H](C(=O)NCC(=O)N[C@@H](CO)C(=O)NCC(=O)N[C@@H](CO)C(=O)N1CCC[C@H]1C(N)=O)[C@@H](C)O)[C@@H](C)O)[C@@H](C)O
notes: also called Ex. #78

IC50: 1.7 nM
Binder: {C18 diacid-γGlu}-ASELTTAVLGRLSAELHELATLPRTETGTGTP-NH2 (also called Ex. #95) [[N-terminal(C18 diacid-gGlu), des1, 6T, 9V, 30T, 31G, 32T]mimylin]

IC50: 0.59 nM
B4: [N-terminal(C18 diacid-gGlu), des1, 4Q, 16Q, 30S, 31G]mimylin (peptide)
peptide: {C18 diacid-γGlu}-ASQLSTAALGRLSAQLHELATLPRTETGSGSP-NH2
SMILES: CC(C)C[C@H](NC(=O)[C@H](C)NC(=O)[C@H](C)NC(=O)[C@@H](NC(=O)[C@H](CO)NC(=O)[C@H](CC(C)C)NC(=O)[C@H](CCC(N)=O)NC(=O)[C@H](CO)NC(=O)[C@H](C)NC(=O)CC[C@H](NC(=O)CCCCCCCCCCCCCCCCC(=O)O)C(=O)O)[C@@H](C)O)C(=O)NCC(=O)N[C@@H](CCCNC(=N)N)C(=O)N[C@@H](CC(C)C)C(=O)N[C@@H](CO)C(=O)N[C@@H](C)C(=O)N[C@@H](CCC(N)=O)C(=O)N[C@@H](CC(C)C)C(=O)N[C@@H](Cc1c[nH]cn1)C(=O)N[C@@H](CCC(=O)O)C(=O)N[C@@H](CC(C)C)C(=O)N[C@@H](C)C(=O)N[C@H](C(=O)N[C@@H](CC(C)C)C(=O)N1CCC[C@H]1C(=O)N[C@@H](CCCNC(=N)N)C(=O)N[C@H](C(=O)N[C@@H](CCC(=O)O)C(=O)N[C@H](C(=O)NCC(=O)N[C@@H](CO)C(=O)NCC(=O)N[C@@H](CO)C(=O)N1CCC[C@H]1C(N)=O)[C@@H](C)O)[C@@H](C)O)[C@@H](C)O
notes: also called Ex. #87

IC50: 0.767 nM
B5: [N-terminal(C18 diacid-gGlu), des1, 5V, 9V, 10V, 30S, 31G]mimylin (peptide)
peptide: {C18 diacid-γGlu}-ASEVSTAVVGRLSAELHELATLPRTETGSGSP-NH2
SMILES: CC(C)C[C@H](NC(=O)[C@H](CCC(=O)O)NC(=O)[C@H](Cc1c[nH]cn1)NC(=O)[C@H](CC(C)C)NC(=O)[C@H](CCC(=O)O)NC(=O)[C@H](C)NC(=O)[C@H](CO)NC(=O)[C@H](CC(C)C)NC(=O)[C@H](CCCNC(=N)N)NC(=O)CNC(=O)[C@@H](NC(=O)[C@@H](NC(=O)[C@H](C)NC(=O)[C@@H](NC(=O)[C@H](CO)NC(=O)[C@@H](NC(=O)[C@H](CCC(=O)O)NC(=O)[C@H](CO)NC(=O)[C@H](C)NC(=O)CC[C@H](NC(=O)CCCCCCCCCCCCCCCCC(=O)O)C(=O)O)C(C)C)[C@@H](C)O)C(C)C)C(C)C)C(=O)N[C@@H](C)C(=O)N[C@H](C(=O)N[C@@H](CC(C)C)C(=O)N1CCC[C@H]1C(=O)N[C@@H](CCCNC(=N)N)C(=O)N[C@H](C(=O)N[C@@H](CCC(=O)O)C(=O)N[C@H](C(=O)NCC(=O)N[C@@H](CO)C(=O)NCC(=O)N[C@@H](CO)C(=O)N1CCC[C@H]1C(N)=O)[C@@H](C)O)[C@@H](C)O)[C@@H](C)O
notes: also called Ex. #96

IC50: 0.515 nM
Binder: {C14 diacid-γGlu}-ASELSTAALGRLSAELHELATLPRTETGPESP-NH2 (also called Ex. #19) [[N-terminal(C14 diacid-gGlu), des1]mimylin]

IC50: 1.24 nM
B6: [N-terminal(C18 diacid-gGlu), des1, 5V, 9V, 10V, 20V, 30S, 31G]mimylin (peptide)
peptide: {C18 diacid-γGlu}-ASEVSTAVVGRLSAELHEVATLPRTETGSGSP-NH2
SMILES: CC(C)C[C@H](NC(=O)[C@H](CCCNC(=N)N)NC(=O)CNC(=O)[C@@H](NC(=O)[C@@H](NC(=O)[C@H](C)NC(=O)[C@@H](NC(=O)[C@H](CO)NC(=O)[C@@H](NC(=O)[C@H](CCC(=O)O)NC(=O)[C@H](CO)NC(=O)[C@H](C)NC(=O)CC[C@H](NC(=O)CCCCCCCCCCCCCCCCC(=O)O)C(=O)O)C(C)C)[C@@H](C)O)C(C)C)C(C)C)C(=O)N[C@@H](CO)C(=O)N[C@@H](C)C(=O)N[C@@H](CCC(=O)O)C(=O)N[C@@H](CC(C)C)C(=O)N[C@@H](Cc1c[nH]cn1)C(=O)N[C@@H](CCC(=O)O)C(=O)N[C@H](C(=O)N[C@@H](C)C(=O)N[C@H](C(=O)N[C@@H](CC(C)C)C(=O)N1CCC[C@H]1C(=O)N[C@@H](CCCNC(=N)N)C(=O)N[C@H](C(=O)N[C@@H](CCC(=O)O)C(=O)N[C@H](C(=O)NCC(=O)N[C@@H](CO)C(=O)NCC(=O)N[C@@H](CO)C(=O)N1CCC[C@H]1C(N)=O)[C@@H](C)O)[C@@H](C)O)[C@@H](C)O)C(C)C

IC50: 0.943 nM
Binder: {C18 diacid-γGlu}-ASEVSTAVLGRLSAELHELATLPRTETGSGSP-NH2 (also called Ex. #86) [[N-terminal(C18 diacid-gGlu), des1, 5V, 9V, 30S, 31G]mimylin]

IC50: 9.15 nM
Binder: {C18 diacid-γGlu}-ASELTTAVLGRLEAELHELTTLPRTETGTGTP-NH2 [[N-terminal(C18 diacid-gGlu), des1, 6T, 9V, 14E, 21T, 30T, 31G, 32T]mimylin]

IC50: 0.651 nM
Binder: {C18 diacid-γGlu}-ASELTTAVLGRLSAELHELATLPRTETGSGTP-NH2 (also called Ex. #94) [[N-terminal(C18 diacid-gGlu), des1, 6T, 9V, 30S, 31G, 32T]mimylin]
